{"source": "patent US20080070838A1", "about": "“Growth Factor Treatment for Asthma” (University of Southampton, priority 2004, published 2008)", "molecules": {"B1": {"name": "EGF: epithelial growth factor; wild-type mouse EGF produced in Pischia pastoris (protein)", "chain": "WQTGNCQPGPLERSERSGTCAGPAPFLVFSQGKSISRIDPDGTNHQQLVVDAGISADMDIHYKKERLYWVDVERQVLLRVFLNGTGLEKVCNVERKVSGLAIDWIDDEVLWVDQQNGVITVTDMTGKNSRVLLSSLKHPSNIAVDPIERLMFWSSEVTGSLHRAHLKGVDVKTLLETGGISVLTLDVLDKRLFWVQDSGEGSHAYIHSCDYEGGSVRLIRHQARHSLSSMAFFGDRIFYSVLKSKAIWIANKHTGKDTVRINLHPSFVTPGKLMVVHPRAQPRTEDAAKDPDPELLKQRGRPCRFGLCERDPKSHSSACAEGYTLSRDRKYCEDVNECATQNHGCTLGCENTPGSYHCTCPTGFVLLPDGKQCHELVSCPGNVSKCSHGCVLTSDGPRCICPAGSVLGRDGKTCTGCSSPDNGGCSQICLPLRPGSWECDCFPGYDLQSDRKSCAASGPQPLLLFANSQDIRHMHFDGTDYKVLLSRQMGMVFALDYDPVESKIYFAQTALKWIERANMDGSQRERLITEGVDTLEGLALDWIGRRIYWTDSGKSVVGGSDLSGKHHRIIIQERISRPRGIAVHPRARRLFWTDVGMSPRIESASLQGSDRVLIASSNLLEPSGITIDYLTDTLYWCDTKRSVIEMANLDGSKRRRLIQNDVGHPFSLAVFEDHLWVSDWAIPSVIRVNKRTGQNRVRLQGSMLKPSSLVVVHPLAKPGADPCLYRNGGCEHICQESLGTARCLCREGFVKAWDGKMCLPQDYPILSGENADLSKEVTSLSNSTQAEVPDDDGTESSTLVAEIMVSGMNYEDDCGPGGCGSHARCVSDGETAECQCLKGFARDGNLCSDIDECVLARSDCPSTSSRCINTEGGYVCRCSEGYEGDGISCFDIDECQRGAHNCGENAACTNTEGGYNCTCAGRPSSPGLSCPDSTAPSLLGEDGHHLDRNSYPGCPSSYDGYCLNGGVCMHIESLDSYTCNCVIGYSGDRCQTRDLRWWELRHAGYGQKHDIMVVAVCMVALVLLLVLGMWGTYYYRTRKQLSNPPKNPCDEPSGSVSSSGPNSSSGAAVASCPQPWFVVLEKHQDPKNGSLPADGTNGAVVDAGLSPSLQLGSVHLTSWRQKPHIDGMGTGQSCWIPPSSDRGPQEIEGNSHLPSYRPVGPEKLHSLQSANGSCHERAPDLPRQTEPVQ"}}, "key": {"[1]": {"tested_on": "primary bronchial epithelial cells from asthmatic subjects", "assay": "Proliferation assay (methylene blue), primary bronchial epithelial cell cultures from asthmatic subjects", "type": "cell-based, human", "conditions": "1.7 nM EGF for 24 hours vs serum free medium, FIG. 2b", "text": "(§1) Bronchial brushings were taken from non-atopic, non-asthmatic control subjects and asthmatic subjects. Volunteers were characterised according to symptoms, pulmonary function and medication. Assessment of asthma severity was in accordance with the GINA guidelines on the diagnosis and management of asthma (Bousquet (2000) Global initiative for asthma (GINA) and its objectives.\n(§2) Bronchial brushings were obtained by bronchoscopy using a fibreoptic bronchoscope (Olympus FB-20D, Tokyo, Japan) in accordance with standard published guidelines (Hurd S. Z. (1991) J. Allergy Clin. Immunol. 88, 808-814). Bronchial epithelial cells were obtained using a standard sterile single-sheathed nylon cytology brush (Olympus BC 9C-26101; Tokyo, Japan). […] Epithelial cell purity was assessed by performing differential cell counts on cytospins of the harvested cell suspension. […]\n(§3) Cells were prepared in 24 well trays at a seeding density of a minimum of 4×10^4 cells/ml primary BECs. […] Absorbance of the eluant was determined using a Multiskan ascent plate reader after a 1:10 dilution with 1:1 ethanol:0.1% HCl to provide an absorbance within the linear range of the plate reader. Absorbance was read using a 630 nm filter and each sample was tested in duplicate. A standard curve was generated by direct cell counting to enable cell number to be related to methylene blue readings. […]"}, "[2]": {"tested_on": "primary bronchial epithelial cells from normal subjects", "assay": "Proliferation assay (methylene blue), primary bronchial epithelial cell cultures from normal controls", "type": "cell-based, human", "conditions": "1.7 nM EGF for 24 hours vs serum free medium, FIG. 2a", "text": "as §1, §2, §3"}}, "note": "Entries after “also recorded” stand apart in the source; their conditions may differ.", "data": [{"molecule": "B1", "values": [{"measurement": "effect on cell number (proliferation)", "setting": "[1]", "result": "small but significant increase in cell number; also recorded: require exogenous EGF for maximal proliferation"}, {"measurement": "effect on cell number (proliferation)", "setting": "[2]", "result": "no effect on cell number; also recorded: unaffected"}]}]}
